We go through one molecule from PMC8763658.

This experiment addresses MUC1 mucin (tumor‐associated MUC1) on human cancer cells (human (endogenous in T47D, A549, MCF-7)) (UniProt P15941).
Sequence of UniProt P15941 (P15941 24-1255, stated change not applied): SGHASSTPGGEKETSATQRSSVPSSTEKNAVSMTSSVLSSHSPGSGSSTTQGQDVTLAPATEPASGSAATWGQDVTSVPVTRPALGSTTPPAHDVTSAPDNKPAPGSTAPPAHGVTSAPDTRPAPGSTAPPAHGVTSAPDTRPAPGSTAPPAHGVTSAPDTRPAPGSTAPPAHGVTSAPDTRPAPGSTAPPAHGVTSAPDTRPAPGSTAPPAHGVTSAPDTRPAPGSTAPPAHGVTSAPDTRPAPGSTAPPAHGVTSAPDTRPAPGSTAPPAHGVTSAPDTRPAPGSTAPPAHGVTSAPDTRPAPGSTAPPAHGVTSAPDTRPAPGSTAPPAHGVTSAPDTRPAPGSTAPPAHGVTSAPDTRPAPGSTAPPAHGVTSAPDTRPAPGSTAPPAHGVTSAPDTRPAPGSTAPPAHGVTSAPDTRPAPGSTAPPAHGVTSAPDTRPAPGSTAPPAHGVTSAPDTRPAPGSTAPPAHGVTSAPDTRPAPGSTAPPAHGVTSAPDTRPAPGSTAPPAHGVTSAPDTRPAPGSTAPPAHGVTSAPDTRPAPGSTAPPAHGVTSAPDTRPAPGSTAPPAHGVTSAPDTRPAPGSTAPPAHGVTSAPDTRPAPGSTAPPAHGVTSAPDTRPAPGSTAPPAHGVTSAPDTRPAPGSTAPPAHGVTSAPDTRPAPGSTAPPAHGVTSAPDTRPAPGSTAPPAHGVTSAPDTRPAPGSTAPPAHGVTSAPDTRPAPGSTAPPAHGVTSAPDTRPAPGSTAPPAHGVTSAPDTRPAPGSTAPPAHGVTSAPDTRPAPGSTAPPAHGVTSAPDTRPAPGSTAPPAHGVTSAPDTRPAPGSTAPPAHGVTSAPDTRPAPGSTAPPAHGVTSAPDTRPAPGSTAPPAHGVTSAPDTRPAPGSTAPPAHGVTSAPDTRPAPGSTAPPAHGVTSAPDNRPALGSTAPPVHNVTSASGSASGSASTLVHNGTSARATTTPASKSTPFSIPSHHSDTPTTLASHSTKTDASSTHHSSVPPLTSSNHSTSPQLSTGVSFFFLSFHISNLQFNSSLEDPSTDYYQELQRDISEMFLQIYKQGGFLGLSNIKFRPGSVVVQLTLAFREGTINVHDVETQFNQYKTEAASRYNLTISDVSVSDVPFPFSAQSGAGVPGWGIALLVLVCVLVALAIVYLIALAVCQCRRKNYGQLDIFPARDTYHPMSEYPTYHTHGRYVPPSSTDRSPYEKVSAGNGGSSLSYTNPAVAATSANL

B1: recombinant anti‐MUC1 nanobody (VHH)
VHH: EVQLVESGGGLVQPGGSLRLSCAASGFTFDDYGMSWVRQAPGKWLEWVSDISWNGGSTYYADSVKGRFTISRDNAENTLYLQMNSLKPDDTAVYYCAKMGEGGWGANDYWGQGTQVTVSS
B1 returned an MTT viability assay, A549 cells, 48 h, IC50 of growth inhibition of 14.3 nM; an MTT viability assay, MCF7 cells, 48 h, IC50 of growth inhibition of 7 nM; an MTT viability assay, MDA‐MB‐231 cells, 48 h, IC50 of growth inhibition of 10 nM; an MTT viability assay, SKBR3 cells, IC50 of growth inhibition of 4.16 nM. In addition, the MTT viability assay, SW742 cells, 48 h, IC50 of growth inhibition turned out to be 7.2 nM and the MTT viability assay, T47D cells, 48 h, IC50 of growth inhibition stood at 1.2 nM.
